B1: BBSome complex member BBS4 (Homo sapiens), Q96RK4 (parent)
chain: MAEERVATRTQFPVSTESQKPRQKKAPEFPILEKQNWLIHLHYIRKDYEACKAVIKEQLQETQGLCEYAIYVQALIFRLEGNIQESLELFQTCAVLSPQSADNLKQVARSLFLLGKHKAAIEVYNEAAKLNQKDWEISHNLGVCYIYLKQFNKAQDQLHNALNLNRHDLTYIMLGKIHLLEGDLDKAIEVYKKAVEFSPENTELLTTLGLLYLQLGIYQKAFEHLGNALTYDPTNYKAILAAGSMMQTHGDFDVALTKYRVVACAVPESPPLWNNIGMCFFGKKKYVAAISCLKRANYLAPFDWKILYNLGLVHLTMQQYASAFHFLSAAINFQPKMGELYMLLAVALTNLEDIENAKRAYAEAVHLDKCNPLVNLNYAVLLYNQGEKKNALAQYQEMEKKVSLLKDNSSLEFDSEMVEMAQKLGAALQVGEALVWTKPVKDPKSKHQTTSTSKPASFQQPLGSNQALGQAMSSAAAYRTLPSGAGGTSQFTKPPSLPLEPEPAVESSPTETSEQIREK
partner: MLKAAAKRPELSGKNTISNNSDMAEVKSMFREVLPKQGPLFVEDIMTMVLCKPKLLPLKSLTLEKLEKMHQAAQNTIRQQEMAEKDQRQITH

Variants of: B1
Conditions: with bbip1_human BBIP1, A8MTZ0

Variant | effect of a mutation on the interaction
MAEERVATRTQFPVSTESQKPRQKKAPEFPILEKQNWLIHLHYIRKDYEACKAVIKEQLQETQGLCEYAIYVQALIFRLEGNIQESLELFQTCAVLSPQSADNLKQVARSLFLLGKHKAAIEVYNEAAKLNQKDWEISHNLGVCYIYLKQFNKAQDQLHNALNLNRHDLTYIMLGKIHLLEGDLDKAIEVYKKAVEFSPENTELLTTLGLLYLQLGIYQKAFEHLGNALTYDPTNYKAILAAGSMMQTHGDFDVALTKYRVVACAVPESPPLWNNIGMCFFGKKKYVAAIACLKRANYLAPFDWKILYNLGLVHLTMQQYASAFHFLSAAINFQPKMGELYMLLAVALTNLEDIENAKRAYAEAVHLDKCNPLVNLNYAVLLYNQGEKKNALAQYQEMEKKVSLLKDNSSLEFDSEMVEMAQKLGAALQVGEALVWTKPVKDPKSKHQTTSTSKPASFQQPLGSNQALGQAMSSAAAYRTLPSGAGGTSQFTKPPSLPLEPEPAVESSPTETSEQIREK [S291A] | with no effect
MAEERVATRTQFPVSTESQKPRQKKAPEFPILEKQNWLIHLHYIRKDYEACKAVIKEQLQETQGLCEYAIYVQALIFRLEGNIQESLELFQTCAVLSPQSADNLKQVARSLFLLGKHKAAIEVYNEAAKLNQKDWEISHNLGVCYIYLKQFNKAQDQLHNALNLNRHDLTYIMLGKIHLLEGDLDKAIEVYKKAVEFSPENTELLTTLGLLYLQLGIYQKAFEHLGNALTYDPTNYKAILAAGSMMQTHGDFDVALTKYRVVACAVPESPPLWNNIGMCFFGKKKYVAAIECLKRANYLAPFDWKILYNLGLVHLTMQQYASAFHFLSAAINFQPKMGELYMLLAVALTNLEDIENAKRAYAEAVHLDKCNPLVNLNYAVLLYNQGEKKNALAQYQEMEKKVSLLKDNSSLEFDSEMVEMAQKLGAALQVGEALVWTKPVKDPKSKHQTTSTSKPASFQQPLGSNQALGQAMSSAAAYRTLPSGAGGTSQFTKPPSLPLEPEPAVESSPTETSEQIREK [S291E] | with no effect
MAEERVATRTQFPVSTESQKPRQKKAPEFPILEKQNWLIHLHYIRKDYEACKAVIKEQLQETQGLCEYAIYVQALIFRLEGNIQESLELFQTCAVLSPQSADNLKQVARSLFLLGKHKAAIEVYNEAAKLNQKDWEISHNLGVCYIYLKQFNKAQDQLHNALNLNRHDLTYIMLGKIHLLEGDLDKAIEVYKKAVEFSPENTELLTTLGLLYLQLGIYQKAFEHLGNALTYDPTNYKAILAAGSMMQTHGDFDVALTKYRVVACAVPESPPLWNNIGMCFFGKKKYVAAASCLKRANYLAPFDWKILYNLGLVHLTMQQYASAFHFLSAAINFQPKMGELYMLLAVALTNLEDIENAKRAYAEAVHLDKCNPLVNLNYAVLLYNQGEKKNALAQYQEMEKKVSLLKDNSSLEFDSEMVEMAQKLGAALQVGEALVWTKPVKDPKSKHQTTSTSKPASFQQPLGSNQALGQAMSSAAAYRTLPSGAGGTSQFTKPPSLPLEPEPAVESSPTETSEQIREK [I290A] | with no effect
MAEERVATRTQFPVSTESQKPRQKKAPEFPILEKQNWLIHLHYIRKDYEACKAVIKEQLQETQGLCEYAIYVQALIFRLEGNIQESLELFQTCAVLSPQSADNLKQVARSLFLLGKHKAAIEVYNEAAKLNQKDWEISHNLGVCYIYLKQFNKAQDQLHNALNLNRHDLTYIMLGKIHLLEGDLDKAIEVYKKAVEFSPENTELLTTLGLLYLQLGIYQKAFEHLGNALTYDPTNYKAILAAGSMMQTHGDFDVALTKYRVVACAVPESPPLWNNIGMCFFGKKKYVAAKSCLKRANYLAPFDWKILYNLGLVHLTMQQYASAFHFLSAAINFQPKMGELYMLLAVALTNLEDIENAKRAYAEAVHLDKCNPLVNLNYAVLLYNQGEKKNALAQYQEMEKKVSLLKDNSSLEFDSEMVEMAQKLGAALQVGEALVWTKPVKDPKSKHQTTSTSKPASFQQPLGSNQALGQAMSSAAAYRTLPSGAGGTSQFTKPPSLPLEPEPAVESSPTETSEQIREK [I290K] | with no effect
MAEERVATRTQFPVSTESQKPRQKKAPEFPILEKQNWLIHLHYIRKDYEACKAVIKEQLQETQGLCEYAIYVQALIFRLEGNIQESLELFQTCAVLSPQSADNLKQVARSLFLLGKHKAAIEVYNEAAKLNQKDWEISHNLGVCYIYLKQFNKAQDQLHNALNLNRHDLTYIMLGKIHLLEGDLDKAIEVYKKAVEFSPENTELLTTLGLLYLQLGIYQKAFEHLGNALTYDPTNYKAILAAGSMMQTHGDFDVALTKYRVVACAVPESPPLWNNIGMCFFGKKKYVAAESCLKRANYLAPFDWKILYNLGLVHLTMQQYASAFHFLSAAINFQPKMGELYMLLAVALTNLEDIENAKRAYAEAVHLDKCNPLVNLNYAVLLYNQGEKKNALAQYQEMEKKVSLLKDNSSLEFDSEMVEMAQKLGAALQVGEALVWTKPVKDPKSKHQTTSTSKPASFQQPLGSNQALGQAMSSAAAYRTLPSGAGGTSQFTKPPSLPLEPEPAVESSPTETSEQIREK [I290E] | with no effect
MAEERVATRTQFPVSTESQKPRQKKAPEFPILEKQNWLIHLHYIRKDYEACKAVIKEQLQETQGLCEYAIYVQALIFRLEGNIQESLELFQTCAVLSPQSADNLKQVARSLFLLGKHKAAIEVYNEAAKLNQKDWEISHNLGVCYIYLKQFNKAQDQLHNALNLNRHDLTYIMLGKIHLLEGDLDKAIEVYKKAVEFSPENTELLTTLGLLYLQLGIYQKAFEHLGNALTYDPTNYKAILAAGSMMQTHGDFDVALTKYRVVACAVPESPPLWNNIGMCFFGKKKYVAKISCLKRANYLAPFDWKILYNLGLVHLTMQQYASAFHFLSAAINFQPKMGELYMLLAVALTNLEDIENAKRAYAEAVHLDKCNPLVNLNYAVLLYNQGEKKNALAQYQEMEKKVSLLKDNSSLEFDSEMVEMAQKLGAALQVGEALVWTKPVKDPKSKHQTTSTSKPASFQQPLGSNQALGQAMSSAAAYRTLPSGAGGTSQFTKPPSLPLEPEPAVESSPTETSEQIREK [A289K] | with no effect

Now from value to variant:

effect of a mutation on the interaction | Variant
with no effect | MAEERVATRTQFPVSTESQKPRQKKAPEFPILEKQNWLIHLHYIRKDYEACKAVIKEQLQETQGLCEYAIYVQALIFRLEGNIQESLELFQTCAVLSPQSADNLKQVARSLFLLGKHKAAIEVYNEAAKLNQKDWEISHNLGVCYIYLKQFNKAQDQLHNALNLNRHDLTYIMLGKIHLLEGDLDKAIEVYKKAVEFSPENTELLTTLGLLYLQLGIYQKAFEHLGNALTYDPTNYKAILAAGSMMQTHGDFDVALTKYRVVACAVPESPPLWNNIGMCFFGKKKYVAAIKCLKRANYLAPFDWKILYNLGLVHLTMQQYASAFHFLSAAINFQPKMGELYMLLAVALTNLEDIENAKRAYAEAVHLDKCNPLVNLNYAVLLYNQGEKKNALAQYQEMEKKVSLLKDNSSLEFDSEMVEMAQKLGAALQVGEALVWTKPVKDPKSKHQTTSTSKPASFQQPLGSNQALGQAMSSAAAYRTLPSGAGGTSQFTKPPSLPLEPEPAVESSPTETSEQIREK [S291K]
disrupting interaction strength | MAEERVATRTQFPVSTESQKPRQKKAPEFPILEKQNWLIHLHYIRKDYEACKAVIKEQLQETQGLCEYAIYVQALIFRLEGNIQESLELFQTCAVLSPQSADNLKQVARSLFLLGKHKAAIEVYNEAAKLNQKDWEISHNLGVCYIYLKQFNKAQDQLHNALNLNRHDLTYIMLGKIHLLEGDLDKAIEVYKKAVEFSPENTELLTTLGLLYLQLGIYQKAFEHLGNALTYDPTNYKAILAAGSMMQTHGDFDVALTKYRVVACAVPESPPLWNNIGMCFFGKKKYVAVISCLKRANYLAPFDWKILYNLGLVHLTMQQYASAFHFLSAAINFQPKMGELYMLLAVALTNLEDIENAKRAYAEAVHLDKCNPLVNLNYAVLLYNQGEKKNALAQYQEMEKKVSLLKDNSSLEFDSEMVEMAQKLGAALQVGEALVWTKPVKDPKSKHQTTSTSKPASFQQPLGSNQALGQAMSSAAAYRTLPSGAGGTSQFTKPPSLPLEPEPAVESSPTETSEQIREK [A289V]
with no effect | MAEERVATRTQFPVSTESQKPRQKKAPEFPILEKQNWLIHLHYIRKDYEACKAVIKEQLQETQGLCEYAIYVQALIFRLEGNIQESLELFQTCAVLSPQSADNLKQVARSLFLLGKHKAAIEVYNEAAKLNQKDWEISHNLGVCYIYLKQFNKAQDQLHNALNLNRHDLTYIMLGKIHLLEGDLDKAIEVYKKAVEFSPENTELLTTLGLLYLQLGIYQKAFEHLGNALTYDPTNYKAILAAGSMMQTHGDFDVALTKYRVVACAVPESPPLWNNIGMCFFGKKKYVAEISCLKRANYLAPFDWKILYNLGLVHLTMQQYASAFHFLSAAINFQPKMGELYMLLAVALTNLEDIENAKRAYAEAVHLDKCNPLVNLNYAVLLYNQGEKKNALAQYQEMEKKVSLLKDNSSLEFDSEMVEMAQKLGAALQVGEALVWTKPVKDPKSKHQTTSTSKPASFQQPLGSNQALGQAMSSAAAYRTLPSGAGGTSQFTKPPSLPLEPEPAVESSPTETSEQIREK [A289E]
with no effect | MAEERVATRTQFPVSTESQKPRQKKAPEFPILEKQNWLIHLHYIRKDYEACKAVIKEQLQETQGLCEYAIYVQALIFRLEGNIQESLELFQTCAVLSPQSADNLKQVARSLFLLGKHKAAIEVYNEAAKLNQKDWEISHNLGVCYIYLKQFNKAQDQLHNALNLNRHDLTYIMLGKIHLLEGDLDKAIEVYKKAVEFSPENTELLTTLGLLYLQLGIYQKAFEHLGNALTYDPTNYKAILAAGSMMQTHGDFDVALTKYRVVACAVPESPPLWNNIGMCFFGKKKYVAAISKLKRANYLAPFDWKILYNLGLVHLTMQQYASAFHFLSAAINFQPKMGELYMLLAVALTNLEDIENAKRAYAEAVHLDKCNPLVNLNYAVLLYNQGEKKNALAQYQEMEKKVSLLKDNSSLEFDSEMVEMAQKLGAALQVGEALVWTKPVKDPKSKHQTTSTSKPASFQQPLGSNQALGQAMSSAAAYRTLPSGAGGTSQFTKPPSLPLEPEPAVESSPTETSEQIREK [C292K]
with no effect | MAEERVATRTQFPVSTESQKPRQKKAPEFPILEKQNWLIHLHYIRKDYEACKAVIKEQLQETQGLCEYAIYVQALIFRLEGNIQESLELFQTCAVLSPQSADNLKQVARSLFLLGKHKAAIEVYNEAAKLNQKDWEISHNLGVCYIYLKQFNKAQDQLHNALNLNRHDLTYIMLGKIHLLEGDLDKAIEVYKKAVEFSPENTELLTTLGLLYLQLGIYQKAFEHLGNALTYDPTNYKAILAAGSMMQTHGDFDVALTKYRVVACAVPESPPLWNNIGMCFFGKKKYVAAISALKRANYLAPFDWKILYNLGLVHLTMQQYASAFHFLSAAINFQPKMGELYMLLAVALTNLEDIENAKRAYAEAVHLDKCNPLVNLNYAVLLYNQGEKKNALAQYQEMEKKVSLLKDNSSLEFDSEMVEMAQKLGAALQVGEALVWTKPVKDPKSKHQTTSTSKPASFQQPLGSNQALGQAMSSAAAYRTLPSGAGGTSQFTKPPSLPLEPEPAVESSPTETSEQIREK [C292A]
with no effect | MAEERVATRTQFPVSTESQKPRQKKAPEFPILEKQNWLIHLHYIRKDYEACKAVIKEQLQETQGLCEYAIYVQALIFRLEGNIQESLELFQTCAVLSPQSADNLKQVARSLFLLGKHKAAIEVYNEAAKLNQKDWEISHNLGVCYIYLKQFNKAQDQLHNALNLNRHDLTYIMLGKIHLLEGDLDKAIEVYKKAVEFSPENTELLTTLGLLYLQLGIYQKAFEHLGNALTYDPTNYKAILAAGSMMQTHGDFDVALTKYRVVACAVPESPPLWNNIGMCFFGKKKYVAAISELKRANYLAPFDWKILYNLGLVHLTMQQYASAFHFLSAAINFQPKMGELYMLLAVALTNLEDIENAKRAYAEAVHLDKCNPLVNLNYAVLLYNQGEKKNALAQYQEMEKKVSLLKDNSSLEFDSEMVEMAQKLGAALQVGEALVWTKPVKDPKSKHQTTSTSKPASFQQPLGSNQALGQAMSSAAAYRTLPSGAGGTSQFTKPPSLPLEPEPAVESSPTETSEQIREK [C292E]

— IntAct's records for PubMed 29039417
